Source: patent US20110301335A1 (published 2011)

T1: human TNFR1 (R&D systems, cat no. 636-R1/CF) (human, UniProt P19438 30-211, limits assumed, biotinylated with EZ-Link NHS-LC-LC-biotin where coated on streptavidin chips; amine-coupled in the Table 2 experiment)
T1 construct: bought soluble recombinant protein; also called hTNFR1; p55
T1 sequence (looked up): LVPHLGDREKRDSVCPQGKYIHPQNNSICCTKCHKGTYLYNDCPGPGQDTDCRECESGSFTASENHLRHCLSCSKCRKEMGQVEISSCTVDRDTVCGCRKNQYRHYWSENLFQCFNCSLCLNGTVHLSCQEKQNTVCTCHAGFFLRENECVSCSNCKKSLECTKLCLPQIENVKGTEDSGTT


Assays:
[1] = biological target: human TNFR1 (R&D systems, cat no. 636-R1/CF) (human) (UniProt P19438); assay: BIAcore sequential injection on biotinylated human TNFR1; competitor DOM1h-574-16
[2] = biological target: T1, human TNFR1 (R&D systems, cat no. …); assay: BIAcore screening of supernatants

Row | percent less binding after DOM1h-574-16 [1] [%] | binding result [2] | Molecule
1 | 20 |  | mAb Clone 4.12 (Invitrogen, cat. no. Zymed 33-0100) (antibody)
2 |  | binds | DOM1h-574-7 (other, anti-TNFR1 dAb (VH) from error-prone test maturation; expressed from pDOM5 (myc tag not included here)) VH: EVQLLESGGGLVQPGGSLRLSCAASGFTFVKYSMGWVRQAPGKGLEWVSQISNTGGHTYYADSVKGRFTISRDNSKNTLYLQMNSLRAEDTAVYYCAIYTGRWEPFDYWGQGTLVTVSS
3 |  | binds | DOM1h-574-10 (other, anti-TNFR1 dAb (VH) from error-prone test maturation; expressed from pDOM5 (myc tag not included here)) VH: EVQLLESGGGLVQPGGSLRLSCAASGFTFGKYSMGWVRQAPGKDLEWVSQISNTGGHTYYADSVKGRFTISRDNSKNTLYLQMNSLRAEDTAVYYCAIYTGRWEPFDYWGQGTLVTVSS
